Data on five variants can be found in FireProtDB (doi:10.1021/bi00437a058).

B1: Ribonuclease, P00648 (parent)
chain: MMKMEGIALKKRLSWISVCLLVLVSAAGMLFSTAAKTETSSHKAHTEAQVINTFDGVADYLQTYHKLPDNYITKSEAQALGWVASKGNLADVAPGKSIGGDIFSNREGKLPGKSGRTWREADINYTSGFRNSDRILYSSDWLIYKTTDHYQTFTKIR

Variants of B1 are the subject of this data set. The following applies: Bacillus amyloliquefaciens, pH 6.3, Fluorescence, structure 1BNI, whole UniProt chain shown.
[1] abbreviates: 25 °C, Urea, MES 450 mM, reversible: yes (100%).
Where [2] appears, read: Thermal, MES 50 mM, reversible: yes (>85%).
Where [3] appears, read: 48 °C, Thermal, MES 50 mM, reversible: yes (>85%).
Where [4] appears, read: 25 °C, GdnHCl, MES 450 mM, reversible: yes (100%).

In the case of MMKMEGIALKKRLSWISVCLLVLVSAAGMLFSTAAKTETSSHKAHTEAQVINTFDGVADYLQTYHKLPDNYITKSEAQALGWVASKGNLADVAPGKSIGGDIFSNREGKLPGKSGRTWREADINYTSGFRNSDRVLYSSDWLIYKTTDHYQTFTKIR [I135V], under setting [1], the “ddG of mutation (higher = less stable)” value turned out to be 1.47 kcal/mol, the denaturant m value is 2.06 kcal/mol/M, the “denaturant midpoint (higher = more stable)” value (“denaturant midpoint” below) turned out to be 3.87 M and the unfolding free energy was found to be 7.95 kcal/mol. For the same variant, under setting [2], the midpoint of thermal melting (Tm) came out at 51 °C; the “change of melting temperature, mutant - wild type (higher = more stable)” value (“change of melting temperature, mutant” for short) is -2.9 °C; the “unfolding enthalpy (van 't Hoff)” value amounted to 117 kcal/mol.

Regarding MMKMEGIALKKRLSWISVCLLVLVSAAGMLFSTAAKTETSSHKAHTEAQVINTFDGVADYLQTYHKLPDNYITKSEAQALGWVASKGNLADVAPGKSIGGDIFSNREGKLPGKSGRTWREADINYTSGFRNSDRALYSSDWLIYKTTDHYQTFTKIR [I135A], under setting [1], the “ddG of mutation (higher = less stable)” value was determined as 4.08 kcal/mol, the denaturant m value turned out to be 2.16 kcal/mol/M, the “denaturant midpoint” value worked out at 2.47 M and the unfolding free energy stood at 5.34 kcal/mol. For the same variant, the “ddG of mutation (higher = less stable)” value under setting [3] turned out to be 3.9 kcal/mol. For the same variant, under setting [2], the Tm was determined as 42.7 °C; the “change of melting temperature, mutant” value is -11.2 °C; the “unfolding enthalpy (van 't Hoff)” value was 106 kcal/mol.

As for MMKMEGIALKKRLSWISVCLLVLVSAAGMLFSTAAKTETSSHKAHTEAQVINTFDGVADYAQTYHKLPDNYITKSEAQALGWVASKGNLADVAPGKSIGGDIFSNREGKLPGKSGRTWREADINYTSGFRNSDRILYSSDWLIYKTTDHYQTFTKIR [L61A], under setting [1], the “ddG of mutation (higher = less stable)” value came out at 4.65 kcal/mol, the denaturant m value worked out at 2.08 kcal/mol/M, the “denaturant midpoint” value amounted to 2.29 M and the unfolding free energy was determined as 4.77 kcal/mol. For the same variant, the “ddG of mutation (higher = less stable)” value under setting [3] was found to be 4.2 kcal/mol. Under setting [2], the melting temperature (Tm) turned out to be 42 °C; the “change of melting temperature, mutant” value is -11.9 °C; the “unfolding enthalpy (van 't Hoff)” value was 108 kcal/mol.

For the variant MMKMEGIALKKRLSWISVCLLVLVSAAGMLFSTAAKTETSSHKAHTEAQVINTFDGVADYLQTYHKLPDNYITKSEAQALGWVASKGNLADVAPGKSIGGDIFSNREGKLPGKSGRTWREADINYTSGFRNSDRILYSSDWLVYKTTDHYQTFTKIR [I143V], under setting [4], the “ddG of mutation (higher = less stable)” value is 0.69 kcal/mol, the denaturant m value was 4.64 kcal/mol/M, the “denaturant midpoint” value was determined as 1.76 M and the unfolding free energy worked out at 8.19 kcal/mol. Under setting [1], the “ddG of mutation (higher = less stable)” value came to 0.74 kcal/mol, the denaturant m value came out at 2.11 kcal/mol/M, the “denaturant midpoint” value came out at 4.11 M and the unfolding free energy worked out at 8.68 kcal/mol. Moreover, under setting [2], the midpoint of thermal melting (Tm) stood at 51.5 °C; the “change of melting temperature, mutant” value is -2.4 °C; the “unfolding enthalpy (van 't Hoff)” value stood at 121 kcal/mol.

Regarding MMKMEGIALKKRLSWISVCLLVLVSAAGMLFSTAAKTETSSHKAHTEAQVINTFDGVADYLQTYHKLPDNYITKSEAQALGWVASKGNLADVAPGKSIGGDIFSNREGKLPGKSGRTWREADINYTSGFRNSDRILYSSDWLAYKTTDHYQTFTKIR [I143A], under setting [4], the “ddG of mutation (higher = less stable)” value amounted to 2.72 kcal/mol, the denaturant m value was 4.87 kcal/mol/M, the “denaturant midpoint” value worked out at 1.26 M and the unfolding free energy is 6.16 kcal/mol. For the same variant, under setting [1], the “ddG of mutation (higher = less stable)” value was determined as 3.13 kcal/mol, the denaturant m value was determined as 2.18 kcal/mol/M, the “denaturant midpoint” value worked out at 2.89 M and the unfolding free energy came out at 6.29 kcal/mol. For the same variant, under setting [3], the “ddG of mutation (higher = less stable)” value was 3.2 kcal/mol. Under setting [2], the Tm amounted to 44.9 °C; the “change of melting temperature, mutant” value is -9.6 °C; the “unfolding enthalpy (van 't Hoff)” value was determined as 112 kcal/mol.
